Here are results for 1 substance from paper PMC6336407.

Assay [1] concerns the target IRE1-KR43 labeled with RED dye (human). As to the kind of experiment: MST; 100 nM IRE1-KR43 labeled with RED dye incubated with 80S at various concentrations for 30 min at 25°C; Monolith NT.115, 20% LED power, 40% IR-laser.
In assay [2] the target is IRE1 KR with N-terminal 6× His-tag (human). In words: BLI; His-tagged IRE1 KR coupled to Ni-NTA biosensors; 80S or 60S at 5 to 500 nM in solution; 25°C, 25 mM HEPES pH 7.4, 150 mM KCl, 5 mM MgCl2, 250 µM TCEP; OCTET RED384. A general note: In BLI a coated tip is dipped into the sample, and binding shifts an interference pattern.

purified 80S ribosomes (complex) returned a Kd in assay [1] of 0.03 µM. Further, in assay [2], the Kd stood at 0.0334 µM, the koff was determined as 0.0598 s⁻¹ and the kon turned out to be 1.81e+06 M⁻¹ s⁻¹.

Broadly, the Kd is the constant that tells how readily two partners part at equilibrium. High values mean a looser complex, low ones a tighter complex. Broadly, the koff is a measure of how fast the partners let go of each other. Broadly, the kon is the rate constant with which the complex forms. Low values mean slow association, high ones fast association.
